Laboratory results: US20210139548A1 (published 2021)
One block for each binder: values may come before it. *1 amine or outer side, *2 acyl side, *3 side chain or, on linkers, in order; H or OH if unused. Side-chain parts run from the residue outwards. The star is where a group is joined. C18 diacid = O=C(O)CCCCCCCCCCCCCCCCC(=O)*; γGlu = O=C(O)[C@H](CCC(=O)[*:2])N[*:1]; Isovaleryl = CC(C)CC(=O)*; AEEA = NCCOCCOCC(=O)O

Biological target: T1, human neuropeptide Y2 receptor (human, UniProt P49146 1-381)
T1 construct: whole, on cells; also called hNPY2 receptor; hNPY2-R
T1 sequence (looked up): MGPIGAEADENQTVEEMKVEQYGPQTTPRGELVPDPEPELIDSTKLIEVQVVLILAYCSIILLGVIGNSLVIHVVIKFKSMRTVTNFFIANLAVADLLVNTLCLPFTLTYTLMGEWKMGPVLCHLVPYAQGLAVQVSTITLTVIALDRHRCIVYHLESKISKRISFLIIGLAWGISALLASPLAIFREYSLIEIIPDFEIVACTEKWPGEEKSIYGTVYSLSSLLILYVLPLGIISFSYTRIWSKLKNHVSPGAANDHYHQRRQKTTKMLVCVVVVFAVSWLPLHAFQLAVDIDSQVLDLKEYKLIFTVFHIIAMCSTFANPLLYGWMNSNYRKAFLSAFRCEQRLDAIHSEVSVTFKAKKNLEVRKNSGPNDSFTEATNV
Assay: radioligand competition (125I-PYY(1-36)), hNPY2R membranes
Summary of the method: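 Commercial human Y2 receptor membranes (0.5 μg protein/well) were incubated with peptide for 2 h at room temperature in 50 mM HEPES, 5 mM MgCl₂, 1 mM CaCl₂, pH 7.4, with 0.2% ovalbumin. Bound radioligand was separated on PEI-soaked GF/C filters and counted by scintillation, and IC₅₀ came from nonlinear sigmoidal regression.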

B1: Compound 25 (peptide)
peptide: Isovaleryl-APEK([AEEA-AEEA-γGlu-C18 diacid])PEEEASAEELQRYYVSLRHYYNWLTRQRY-NH2
SMILES: CC(C)CC(=O)N[C@@H](C)C(=O)N1CCC[C@H]1C(=O)N[C@@H](CCC(=O)O)C(=O)N[C@@H](CCCCNC(=O)COCCOCCNC(=O)COCCOCCNC(=O)CC[C@H](NC(=O)CCCCCCCCCCCCCCCCC(=O)O)C(=O)O)C(=O)N1CCC[C@H]1C(=O)N[C@@H](CCC(=O)O)C(=O)N[C@@H](CCC(=O)O)C(=O)N[C@@H](CCC(=O)O)C(=O)N[C@@H](C)C(=O)N[C@@H](CO)C(=O)N[C@@H](C)C(=O)N[C@@H](CCC(=O)O)C(=O)N[C@@H](CCC(=O)O)C(=O)N[C@@H](CC(C)C)C(=O)N[C@@H](CCC(N)=O)C(=O)N[C@@H](CCCNC(=N)N)C(=O)N[C@@H](Cc1ccc(O)cc1)C(=O)N[C@@H](Cc1ccc(O)cc1)C(=O)N[C@H](C(=O)N[C@@H](CO)C(=O)N[C@@H](CC(C)C)C(=O)N[C@@H](CCCNC(=N)N)C(=O)N[C@@H](Cc1c[nH]cn1)C(=O)N[C@@H](Cc1ccc(O)cc1)C(=O)N[C@@H](Cc1ccc(O)cc1)C(=O)N[C@@H](CC(N)=O)C(=O)N[C@@H](Cc1c[nH]c2ccccc12)C(=O)N[C@@H](CC(C)C)C(=O)N[C@H](C(=O)N[C@@H](CCCNC(=N)N)C(=O)N[C@@H](CCC(N)=O)C(=O)N[C@@H](CCCNC(=N)N)C(=O)N[C@@H](Cc1ccc(O)cc1)C(N)=O)[C@@H](C)O)C(C)C
- Ki: 4.36 nM

B2: Compound 26 (peptide)
peptide: Isovaleryl-APEK([AEEA-AEEA-γGlu-C18 diacid])PPEDATPEELQRYYVSLRHYYNWLTRQRY-NH2
SMILES: CC(C)CC(=O)N[C@@H](C)C(=O)N1CCC[C@H]1C(=O)N[C@@H](CCC(=O)O)C(=O)N[C@@H](CCCCNC(=O)COCCOCCNC(=O)COCCOCCNC(=O)CC[C@H](NC(=O)CCCCCCCCCCCCCCCCC(=O)O)C(=O)O)C(=O)N1CCC[C@H]1C(=O)N1CCC[C@H]1C(=O)N[C@@H](CCC(=O)O)C(=O)N[C@@H](CC(=O)O)C(=O)N[C@@H](C)C(=O)N[C@H](C(=O)N1CCC[C@H]1C(=O)N[C@@H](CCC(=O)O)C(=O)N[C@@H](CCC(=O)O)C(=O)N[C@@H](CC(C)C)C(=O)N[C@@H](CCC(N)=O)C(=O)N[C@@H](CCCNC(=N)N)C(=O)N[C@@H](Cc1ccc(O)cc1)C(=O)N[C@@H](Cc1ccc(O)cc1)C(=O)N[C@H](C(=O)N[C@@H](CO)C(=O)N[C@@H](CC(C)C)C(=O)N[C@@H](CCCNC(=N)N)C(=O)N[C@@H](Cc1c[nH]cn1)C(=O)N[C@@H](Cc1ccc(O)cc1)C(=O)N[C@@H](Cc1ccc(O)cc1)C(=O)N[C@@H](CC(N)=O)C(=O)N[C@@H](Cc1c[nH]c2ccccc12)C(=O)N[C@@H](CC(C)C)C(=O)N[C@H](C(=O)N[C@@H](CCCNC(=N)N)C(=O)N[C@@H](CCC(N)=O)C(=O)N[C@@H](CCCNC(=N)N)C(=O)N[C@@H](Cc1ccc(O)cc1)C(N)=O)[C@@H](C)O)C(C)C)[C@@H](C)O
- Ki: 0.77 nM

B4: Compound 27 (peptide)
peptide: Isovaleryl-APEK([AEEA-AEEA-γGlu-C18 diacid])PPEDAEPEELQRYYVSLRHYYNWLTRQRY-NH2
SMILES: CC(C)CC(=O)N[C@@H](C)C(=O)N1CCC[C@H]1C(=O)N[C@@H](CCC(=O)O)C(=O)N[C@@H](CCCCNC(=O)COCCOCCNC(=O)COCCOCCNC(=O)CC[C@H](NC(=O)CCCCCCCCCCCCCCCCC(=O)O)C(=O)O)C(=O)N1CCC[C@H]1C(=O)N1CCC[C@H]1C(=O)N[C@@H](CCC(=O)O)C(=O)N[C@@H](CC(=O)O)C(=O)N[C@@H](C)C(=O)N[C@@H](CCC(=O)O)C(=O)N1CCC[C@H]1C(=O)N[C@@H](CCC(=O)O)C(=O)N[C@@H](CCC(=O)O)C(=O)N[C@@H](CC(C)C)C(=O)N[C@@H](CCC(N)=O)C(=O)N[C@@H](CCCNC(=N)N)C(=O)N[C@@H](Cc1ccc(O)cc1)C(=O)N[C@@H](Cc1ccc(O)cc1)C(=O)N[C@H](C(=O)N[C@@H](CO)C(=O)N[C@@H](CC(C)C)C(=O)N[C@@H](CCCNC(=N)N)C(=O)N[C@@H](Cc1c[nH]cn1)C(=O)N[C@@H](Cc1ccc(O)cc1)C(=O)N[C@@H](Cc1ccc(O)cc1)C(=O)N[C@@H](CC(N)=O)C(=O)N[C@@H](Cc1c[nH]c2ccccc12)C(=O)N[C@@H](CC(C)C)C(=O)N[C@H](C(=O)N[C@@H](CCCNC(=N)N)C(=O)N[C@@H](CCC(N)=O)C(=O)N[C@@H](CCCNC(=N)N)C(=O)N[C@@H](Cc1ccc(O)cc1)C(N)=O)[C@@H](C)O)C(C)C
- Ki: 0.96 nM

B5: Compound 28 (peptide)
peptide: Isovaleryl-APEK([AEEA-AEEA-γGlu-C18 diacid])PEEDTSPEELQRYYVELRHYYNWLTRQRY-NH2
SMILES: CC(C)CC(=O)N[C@@H](C)C(=O)N1CCC[C@H]1C(=O)N[C@@H](CCC(=O)O)C(=O)N[C@@H](CCCCNC(=O)COCCOCCNC(=O)COCCOCCNC(=O)CC[C@H](NC(=O)CCCCCCCCCCCCCCCCC(=O)O)C(=O)O)C(=O)N1CCC[C@H]1C(=O)N[C@@H](CCC(=O)O)C(=O)N[C@@H](CCC(=O)O)C(=O)N[C@@H](CC(=O)O)C(=O)N[C@H](C(=O)N[C@@H](CO)C(=O)N1CCC[C@H]1C(=O)N[C@@H](CCC(=O)O)C(=O)N[C@@H](CCC(=O)O)C(=O)N[C@@H](CC(C)C)C(=O)N[C@@H](CCC(N)=O)C(=O)N[C@@H](CCCNC(=N)N)C(=O)N[C@@H](Cc1ccc(O)cc1)C(=O)N[C@@H](Cc1ccc(O)cc1)C(=O)N[C@H](C(=O)N[C@@H](CCC(=O)O)C(=O)N[C@@H](CC(C)C)C(=O)N[C@@H](CCCNC(=N)N)C(=O)N[C@@H](Cc1c[nH]cn1)C(=O)N[C@@H](Cc1ccc(O)cc1)C(=O)N[C@@H](Cc1ccc(O)cc1)C(=O)N[C@@H](CC(N)=O)C(=O)N[C@@H](Cc1c[nH]c2ccccc12)C(=O)N[C@@H](CC(C)C)C(=O)N[C@H](C(=O)N[C@@H](CCCNC(=N)N)C(=O)N[C@@H](CCC(N)=O)C(=O)N[C@@H](CCCNC(=N)N)C(=O)N[C@@H](Cc1ccc(O)cc1)C(N)=O)[C@@H](C)O)C(C)C)[C@@H](C)O
- Ki: 6.03 nM

Next, values leading:

- Ki: 4.84 nM
B3: Compound 32 (peptide)
peptide: Isovaleryl-APEK([AEEA-AEEA-γGlu-C18 diacid])PEEDTSPEELQRYEVSLRHYYNWLTRQRY-NH2
SMILES: CC(C)CC(=O)N[C@@H](C)C(=O)N1CCC[C@H]1C(=O)N[C@@H](CCC(=O)O)C(=O)N[C@@H](CCCCNC(=O)COCCOCCNC(=O)COCCOCCNC(=O)CC[C@H](NC(=O)CCCCCCCCCCCCCCCCC(=O)O)C(=O)O)C(=O)N1CCC[C@H]1C(=O)N[C@@H](CCC(=O)O)C(=O)N[C@@H](CCC(=O)O)C(=O)N[C@@H](CC(=O)O)C(=O)N[C@H](C(=O)N[C@@H](CO)C(=O)N1CCC[C@H]1C(=O)N[C@@H](CCC(=O)O)C(=O)N[C@@H](CCC(=O)O)C(=O)N[C@@H](CC(C)C)C(=O)N[C@@H](CCC(N)=O)C(=O)N[C@@H](CCCNC(=N)N)C(=O)N[C@@H](Cc1ccc(O)cc1)C(=O)N[C@@H](CCC(=O)O)C(=O)N[C@H](C(=O)N[C@@H](CO)C(=O)N[C@@H](CC(C)C)C(=O)N[C@@H](CCCNC(=N)N)C(=O)N[C@@H](Cc1c[nH]cn1)C(=O)N[C@@H](Cc1ccc(O)cc1)C(=O)N[C@@H](Cc1ccc(O)cc1)C(=O)N[C@@H](CC(N)=O)C(=O)N[C@@H](Cc1c[nH]c2ccccc12)C(=O)N[C@@H](CC(C)C)C(=O)N[C@H](C(=O)N[C@@H](CCCNC(=N)N)C(=O)N[C@@H](CCC(N)=O)C(=O)N[C@@H](CCCNC(=N)N)C(=O)N[C@@H](Cc1ccc(O)cc1)C(N)=O)[C@@H](C)O)C(C)C)[C@@H](C)O

- Ki: 0.45 nM
B6: Compound 33 (peptide)
peptide: Isovaleryl-APEK([AEEA-AEEA-γGlu-C18 diacid])PEEPASPEELQRYYVELRHYYNWLTRQRY-NH2
SMILES: CC(C)CC(=O)N[C@@H](C)C(=O)N1CCC[C@H]1C(=O)N[C@@H](CCC(=O)O)C(=O)N[C@@H](CCCCNC(=O)COCCOCCNC(=O)COCCOCCNC(=O)CC[C@H](NC(=O)CCCCCCCCCCCCCCCCC(=O)O)C(=O)O)C(=O)N1CCC[C@H]1C(=O)N[C@@H](CCC(=O)O)C(=O)N[C@@H](CCC(=O)O)C(=O)N1CCC[C@H]1C(=O)N[C@@H](C)C(=O)N[C@@H](CO)C(=O)N1CCC[C@H]1C(=O)N[C@@H](CCC(=O)O)C(=O)N[C@@H](CCC(=O)O)C(=O)N[C@@H](CC(C)C)C(=O)N[C@@H](CCC(N)=O)C(=O)N[C@@H](CCCNC(=N)N)C(=O)N[C@@H](Cc1ccc(O)cc1)C(=O)N[C@@H](Cc1ccc(O)cc1)C(=O)N[C@H](C(=O)N[C@@H](CCC(=O)O)C(=O)N[C@@H](CC(C)C)C(=O)N[C@@H](CCCNC(=N)N)C(=O)N[C@@H](Cc1c[nH]cn1)C(=O)N[C@@H](Cc1ccc(O)cc1)C(=O)N[C@@H](Cc1ccc(O)cc1)C(=O)N[C@@H](CC(N)=O)C(=O)N[C@@H](Cc1c[nH]c2ccccc12)C(=O)N[C@@H](CC(C)C)C(=O)N[C@H](C(=O)N[C@@H](CCCNC(=N)N)C(=O)N[C@@H](CCC(N)=O)C(=O)N[C@@H](CCCNC(=N)N)C(=O)N[C@@H](Cc1ccc(O)cc1)C(N)=O)[C@@H](C)O)C(C)C
